Data as given in article PMC7737156, “A 3.4-Å cryo-electron microscopy structure of the human coronavirus spike trimer computationally derived from vitrified NL63 virus particles” (QRB Discovery, 2020).

Target: the molecule itself
Test: cryo-EM structure; single-particle cryo-EM of purified, vitrified HCoV-NL63 virions without chemical fixative; spikes extracted computationally from the micrographs; refined with C3 symmetry (3.4 Å) and without (3.7 Å); virus resuspension buffer 20 mM Tris pH 8.0, 120 mM NaCl, 1 mM EDTA

B1: HCoV-NL63 coronavirus spike glycoprotein (natural protein)
chain: CNSNANLSMLQLGVPDNSSTIVTGLLPTHWFCANQSTSVYSANGFFYIDVGNHRSAFALHTGYYDANQYYIYVTNEIGLNASVTLKICKFSRNTTFDFLSNASSSFDCIVNLLFTEQLGAPLGITISGETVRLHLYNVTRTFYVPAAYKLTKLSVKCYFNYSCVFSVVNATVTVNVTTHNGRVVNYTVCDDCNGYTDNIFSVQQDGRIPNGFPFNNWFLLTNGSTLVDGVSRLYQPLRLTCLWPVPGLKSSTGFVYFNATGSDVNCNGYQHNSVVDVMRYNLNFSANSLDNLKSGVIVFKTLQYDVLFYCSNSSSGVLDTTIPFGPSSQPYYCFINSTINTTHVSTFVGILPPTVREIVVARTGQFYINGFKYFDLGFIEAVNFNVTTASATDFWTVAFATFVDVLVNVSATNIQNLLYCDSPFEKLQCEHLQFGLQDGFYSANFLDDNVLPETYVALPIYYQHTDINFTATASFGGSCYVCKPHQVNISLNGNTSVCVRTSHFSIRYIYNRVKSGSPGDSSWHIYLKSGTCPFSFSKLNNFQKFKTICFSTVEVPGSCNFPLEATWHYTSYTIVGALYVTWSEGNSITGVPYPVSGIREFSNLVLNNCTKYNIYDYVGTGIIRSSNQSLAGGITYVSNSGNLLGFKNVSTGNIFIVTPCNQPDQVAVYQQSIIGAMTAVNESRYGLQNLLQLPNFYYVSNGGNNCTTAVMTYSNFGICADGSLIPVRPRNSSDNGISAIITANLSIPSNWTTSVQVEYLQITSTPIVVDCATYVCNGNPRCKNLLKQYTSACKTIEDALRLSAHLETNDVSSMLTFDSNAFSLANVTSFGDYNLSSVLPQRNIRSSRIAGRSALEDLLFSKVVTSGLGTVDVDYKSCTKGLSIADLACAQYYNGIMVLPGVADAERMAMYTGSLIGGMVLGGLTSAAAIPFSLALQARLNYVALQTDVLQENQKILAASFNKAINNIVASFSSVNDAITQTAEAIHTVTIALNKIQDVVNQQGSALNHLTSQLRHNFQAISNSIQAIYDRLDSIQADQQVDRLITGRLAALNAFVSQVLNKYTEVRGSRRLAQQKINECVKSQSNRYGFCGNGTHIFSIVNSAPDGLLFLHTVLLPTDYKNVKAWSGICVDGIYGYVLRQPNLVLYSDNGVFRVTSRVMFQPRLPVLSDFVQIYNCNVTFVNISRVELHTVIPDYVDVNKTLQEFAQNLPKYVKPNFDLTPFNLTYLNLSSELKQLEAKTASLFQTTVELQGLIDQINSTYVDLKLLNRFENYIKWPWWVWLIISVVFVVLLSLLVFCCLSTGCCGCCNCLTSSMRGCCDCGSTKLPYYEFEKVHVQ
modifications: glycosylated; N-linked glycan density at Asn24 and Asn203 and O-linked glycan density at Ser496 newly seen here, besides the glycan sites seen before in EMD-8331
notes: Spike glycoprotein of human coronavirus NL63, membrane-anchored on native virions, pre-fusion state; model built from PDB 5SZS with residues 883-889 and 993-1000 added; Native spike on the virion, no stabilising mutations and no tags; the cited ectodomain structure PDB 5SZS is another construct (purified ectodomain made in insect cells); also called S trimer; HCoV-NL63 spike (S) trimer; source: …
For B1, the “stoichiometry N” value was 3.
